From the nanobody polyreactivity screen of Harvey et al. (2022)

Assay: yeast display, Sf9 membrane polyspecificity reagent, FACS + sequencing; frameworks hold sequencing errors
How it was run: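 Polyreactivity labels are assigned by the sorting gate from which each nanobody was recovered. The gates were low and high (top ~1%), set on anti-HA fluorescence for expression and streptavidin fluorescence for reagent binding. Before sorting, galactose-induced (36–48 hours) yeast display cells were stained for 1 hour at 4 °C with 10% biotinylated, detergent-solubilized Sf9 membrane reagent.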

Row | Sequence | polyreactivity (PSR sort gate)
1 | QVQLVESGGGLVQAGGSLRLSCAASGIIFWDYAMGWYRQAPGKEREFVAAINTSGGTTTYADSVKGRFTISRDNAKNTVYLQMNSLKPEDTAVYNCAADPWGYYSYAYYYWGQGTQVTVSS | low polyreactivity
2 | QVQLVESGGGLVQAGGSLRLSCAASGFTFDENAMGWYRQAPGINYSGASTYYADSVKGRFTISRDNAKNTVYFQMNSLKPEDTAVYYCAAEVVAQMNYWGQGTQVTVSS | low polyreactivity
3 | QVHLVESGGGLVQAGGSLRLSCAASGFIFWGYAMGWYRPAPVHERELVAAISSDGDTYYADSVKGRFTISLDNAKNTVYLQMNCRKPEESAVYYCNADLYGGGDNSVISGLNGEYEYWGQGTQVTVSS | low polyreactivity
4 | QVQLVESGGGLVQAGGSLRLSCAASGITFWYNAMGWYRQAPGKERELVAAITRTGSTNYADSVKGRFTISRDNAKNTVYLQMNSLKPEDTAVYYCAAYLGWPWGYYSWGQGTQVTVSS | high polyreactivity
5 | QVQLVESGGGLVQAGGSLRLSCAASGITFVRYAMGWYRQAPGKERELVAAINSDGNTYYADSVKGRFTISRDTAKNTVYLQLNSLKPEDTACYYCAAGQGAGVDYWGQGTQVTVSS | high polyreactivity
6 | QVQLVESGGGLVQAGGSLRLSCAASGSTFPYYAMGWYRLAPGKERELVAAISFRGTRTYYADSVKGRFTISRDNAKNTVYLQMNSLKPEDTAVYYCAADASTYYGTQWASYYYWGQGTQVTVSS | high polyreactivity
7 | QVQLVESGGGLVQEGGSLRLSCAASGSTFGVYSMGWYRQAPGKERELVAAISYTGGSTYYADSVKGRFTISRDNAKNSVYLQMNSLKPEDTGVFYCAVEVGYTDSPYSYDYWGEGTQVTVSS | low polyreactivity
8 | QVQLVEAGGCLVQAGGSLRLSCAASGRIFRFYTMGWYRQAPGNERELVAAIRYSSVSTYYADSVKGRFTISRDNAKNTVYLQMNSLKPEDTAVYYCDAVHRSYVKTYNYWGLGTQVTVSS | high polyreactivity
9 | QVQLVESGGGLVQAGGSLRLSCAASGFIFKPYDMGWYRQARGKERELVAAISWTGTSTYYADSVKGRFTISRDNAKNTVYLQMNSLKPEDTAVYYCAADFYGGFAHEYWGQGTQVTVSS | low polyreactivity
10 | QVQLVESGGGLVQAGGSLRLSCAASGSTFVIYGMGLYRQEPGKESDIVADITWIGGSTYYADSVKGRFTISRDNAKNTVYLQMKSLKPEDTAVYYCAADAAYLYLYNWYDTEDYYWGQGTLVTVSS | low polyreactivity
11 | QVQLVESGGGLVQAGGSLRLSCAASGSIFRVYGMGWYRQAPGKERELVAAITWSGGSTYYADSVKGRFTISRDNAKNTVYLQMNSLKPEDTAVYYCNADKFRRYGYWGQGTQVTVSS | high polyreactivity
12 | QVQLVESGGGLVQAGGSLRLSCAASGRISFRYAMGWYRPAPGKERELVAAINRGGITNYADSVKGRFTISRDNAKNTVYLQMNSLKPEDTAVYYCAARWRGSGGFDYWGQGTQVTVSS | high polyreactivity
13 | QVQLVESGGGLVQAGGSLRLRCAASGRIQPGNAMGWYRQATGKERELVAAISSGGRTNYADSVKGRFTISRDIAKITVYLQMNSLKPEDTAVYYCAKRTVWWSIWHYYPPTYNYWGQGTQVTVSS | high polyreactivity
14 | QVQLVESGGGLVQAGGSLRLSCAASGFTFKRNAMGWYRQAPGKERELVAAISWSGSRTYADSVKGRFTISRDYAKNTVYVQMNSLKPEDTAVYYCAASPGRRRRPYASLIRYDYWGQGTQVTVSS | high polyreactivity
15 | QVQLVESGGGLVQAGGSLRLSCAASGLTFGDYVMGWYRQAPGKERELVATITSDGGTTYADSVKGRFTISRDNAKNTVYLQMNSLKPEVTAVYYCYADAVVDNYVGFSAAGFDYWGQGTQVTVSS | low polyreactivity
16 | QVQLVESGGGLVQAGGSLRISCAASGRIFLFYAMGWYRQAPGKEREWVAAITYSGSTYYADSVKGRFTISRDNAKNTVYLQMNSLIPEDTAVYYCNARYRTYAGTYGYNYWGQGTQVTVSS | high polyreactivity
17 | QVQLVESGGGLVQAGGSLRLSCAASGSTFRYYAMGWYRQAPGKEREMVAAISTSGGRTYYADSVKGRFTISRDNAKNTVYLQLNSLKPEDTAVYYCNARESRGYSYQTWKYYYWGQGTQVTVSS | high polyreactivity
18 | QVQLVESGGGLVQAGGSLRLSCAASGFIFSPYAMGWYRQAPGKERELVAAISSGGSTYYADSVKGRFTISRDNAKNTVYLQMNSLKPEDTAVYYCAASWGRRKPRMDYWGLGTQVTVSS | high polyreactivity
19 | QVQLVESGGGLVQAGGSLRLSCAASGIIFGYYAMGWKRQAPGKERELVAAIDWTGGNTYYADSVKGRFTSSRDNAKNTVYLQMNSLKPEDTAVYYWAADSNSQEDYWGQGTQVTVSS | low polyreactivity
20 | QVQLVESGGGLVQAGGSLRLSCAGSGRIFFWYVMGWYRQAPGKERELVAAISSGGRTYYADSVKGRFTISRDNAKNTVYLQMNSLKPEDTAVYYCAAVRRYLKAAYGYWGQGTQVTVSS | low polyreactivity
21 | QVQLVESGGGLVQAGGSLRLSCAASGSTFWPYTMGWYRQAPGKERELVAAISLSGGSTYYADSVKGRFTISRDNAKNTVYLQMNSLKPEDTAVYYCAAEGGYQNWHYLYDYWGQGTQVTVSS | low polyreactivity
22 | QVQLVESGGGLVQAGGSLRLSCAASGIIFSWYAMGWYRQAPGKERELVASITIGGNTNYADSVKGRFTISRDNAKNTVYLQMNSLKPEDTAVYYCAAQTFWYGYGGGDYWGEGTQVTVSS | low polyreactivity

Row | Sequence | polyreactivity (PSR sort gate)
23 | QVQLVESGGGLVQAGGSLRLSCAASGRTFSRYAMGWYRQAPGKERELVAAISWSGGTTHYADSVKGRFTISRDNAKNTVYLQMNSLKPEDTAVYYCNKLRQIEFWGQGTQVTVSS | high polyreactivity
24 | QVQLVESGGGLVQAGGSLRLSCAASGGTFGTNAMGWYRQAPGKERELVATIRTSVGSTYYADSVKGRFTISRDNAKNTVYLQMNSVKPEDTAVYYCAAGVPKNGQAGYDYWGQGTQVTVSS | high polyreactivity
25 | QVQLVESGGGLVQAGGSLRLSCAASGFTFSYYPMGWYRLAPGKERELVAAITSGGSTYYADSVKGRFTISRDNAKNTVYLQMNSLKPEDTAVYYCNARGYGTLNVRRERMDYWGQGTQVTVSS | high polyreactivity
26 | QVQLVESGGGLVQAGVSLRLSCAASVSIFSGNTMGWYRQAPGKERELVAAIRWRGGTYYADSVKGRFTISRDNAKNTVYLQMNSLKPEDPAVYYCATSVKPSYDYWGQGTQVTVSS | low polyreactivity
27 | QVQLVESGGGLVQAGGSLRLSCAASGSIFYVNAMGWYRQAPGKESELVAAISFSGGTTYYADSVKGRFTISRDNAKNTVYLQMNSLKPEDTAVYYCNTPSSREMDYWGQGTQVTVSS | low polyreactivity
28 | QVQLVESGGGLVQAGGSLRLICDASGRIFPWYTMGWYRQAPGKERELVAAITSGGNKDYADSVKGRFTISRDYAKNTVFLQMNSLKPEDTAVYYCAAGPDPLGEDYWGQGTQVTVSS | low polyreactivity
29 | QVQLVESGGGLVQAGGRLRLSCPPSGVTFTRNAMGWYRQAPGKERELVAAISSSAGSTSYADSVKGRLTISRDNAKNTVYLQMNSLKPEDTAVYYCATEGSYYSWVGKVGYRYQYHYWGHGTQVTVSS | high polyreactivity
30 | QVQLEESGGALVQAGGSLRLSCAASGFIFTLYAMGWYRQAPGKEREFVAAISWSDGSTTYADSVKGRFTISRDNAKNTVYLQMNSLNPEDTAVYYCAAVTSSYIRGLVYHFYYWGQGTQVTVSS | low polyreactivity
31 | QVQLVESGGGIVQAGGSLRLSCAASGSIFLGYTMGLYRQAPGKERELVAAINSSGGSTYYADSVKGRFTISRDNAKNTVYLQMNSLKPEDTAVYYCADANSILLFDSWGQGTQVTVSS | low polyreactivity
32 | QVQLVESGGGLVQAGGSLRVSCAASGFTFGSYAMGWYRQSPGKERELVAVITRSGRTNYADSVKGRFTISRDNAKNTVYLQMNSLKPEDTAVYYCNADDVDDEVSPDLTEMDYWGQGTQVTVSS | low polyreactivity
33 | QVQLVESGGGLVQAGGSLRLSCAASGSTFYSYAMGWYRQAPGKERELVAAITRGGSTYYADSVKGRFTISRDNAKNTVYLQMNSLKPEDTAVYYCAARPWTSASYDYWGQGTQVTVSS | low polyreactivity
34 | QVQLVESGGGLVQAGGSLRLSCAASGSIFWNAMGWNKQAPGKERELVAAISWSGTRTYYADSVKGRFTISRDNAKNTVYLQMNSLKPEDTAVYYCNAVQWNAYYYWGQGTQVTVSS | high polyreactivity
35 | QVQLVESVGGLVQAGGSLRLSCAASGSTFGHYAMGWYRQAPGKERELVSAISTSGGRTYYADSVKGRFTISRDNAKNTVYLQMNSLKPEDTAVYYCATRRYGVDKFDYWGQGTQVTVSS | high polyreactivity
36 | QVQLVESGGGLVQAGGSLRLSCAASGRIFGENAMGWYRQAPGKERELVAAITWSGTSTYYADSVKGRFTISRDNAKNTVYLQMNSLKPEDTAVDYCAASATLFSSRGKRYYWGQGTQVTVSS | low polyreactivity
37 | QVQLVESGGGLVQAGGSLRLSCAASGRIFDHYAMGWYRQAPGKERELVAAITRSGGITYYADSVKGRFTISRDNAKNTVYLQMNSLKPEDTAVYSCAALSYRYTDKFDYWGQGTQVTVSS | low polyreactivity
38 | QVQLVESGGGLVQAVGSLRLSCDASGLTFNSNAMGWYIQAHGKDRELVATISRGGTTNYADSVKGRFTISRDNAKNTVYLQMNSLKPEDTAVYYCNALRGSRYDYWGQGTQVTVSS | high polyreactivity
39 | QEQLQERGGGLVQAGGSLRLSCAASGNISVTGFMGWYRQAPGKERELVASIGIGGTTYYADSVKGRFSMSRDNAKNTVYLKMNRLKPEDTAVYYCAVRWYDHVSRRGIGYYWGKGTQVTVSS | low polyreactivity
40 | QVQLVESGGGLVQAGGSLRLSCAASGSSFNSYAMGWYRQAPGKERELVASITRGGSTYYADSVKGRFTISRDNAKTTVYLQMNSLKPEDTAVYYCAARFTQHNYWAMDYRGQGTQVTVSS | high polyreactivity
41 | QVQLVESGGGLVQAGGSLRLSCAASGSIFADYTMGCYRQAPGKERELVAAITGGGGRTYYADSVKGRFTISRDNAKNTVYLQMNSLKPEDTAVYYCAADFHDDHTSFDYWGQGTQVTVSS | low polyreactivity
42 | QVQLVESGGGLVQAGGSLRLSCAASGSIFARNAMGWYRQAPGKERELVASITWSGASTYYADSVKGRFTISRDNAKNTVYLQMNSLKPADTSFYYSAATDQNLSLDYSSYEYRGQGTQVTVSS | low polyreactivity
43 | QVQLVESGGGLVQAGGSLRLSCAASGGTFDWNTMGWYRQAPGKERELVASITSGGRTNYADSVKGRFTISRDNAKNTVYLQMNSLKPEDTAVYYCAKYRRSAYPWQTWVGQKFDYWGQGTQVTVSS | low polyreactivity
